Source: patent publication US20050026839A1 (GENERAL HOSPITAL, published 2005)
Square brackets hold non-standard residues; d marks the D form. Ends that are not written are not given here. hArg = N=C(N)NCCCC[C@H](N)C(=O)O; Nle = CCCC[C@H](N)C(=O)O; Aib = CC(C)(N)C(=O)O

T1: truncated human P1R deleted for residues (24-181) (hP1R-delNt) (human, UniProt Q03431 182-593)
T1 construct: whole, on cells; also called delNT receptor
T1 sequence (looked up): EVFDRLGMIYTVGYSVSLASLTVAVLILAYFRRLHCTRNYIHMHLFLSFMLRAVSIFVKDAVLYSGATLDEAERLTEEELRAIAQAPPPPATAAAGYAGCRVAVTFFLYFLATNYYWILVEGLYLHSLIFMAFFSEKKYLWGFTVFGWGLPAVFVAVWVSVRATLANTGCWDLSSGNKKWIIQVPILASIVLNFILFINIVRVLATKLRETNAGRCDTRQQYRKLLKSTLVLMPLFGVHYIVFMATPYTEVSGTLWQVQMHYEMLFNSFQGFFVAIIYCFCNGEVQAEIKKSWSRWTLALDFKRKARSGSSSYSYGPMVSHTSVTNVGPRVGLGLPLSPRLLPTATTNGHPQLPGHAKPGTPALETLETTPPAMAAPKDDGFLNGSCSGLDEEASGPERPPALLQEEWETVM

T2: wild-type human PTH/PTHrP receptor (hP1R-WT) (human, UniProt Q03431 27-593)
T2 construct: whole, on cells; HKRK-B28 cells express ~280,000 receptors per cell; also called PTH-1 receptor; PTH-1R
T2 sequence (looked up): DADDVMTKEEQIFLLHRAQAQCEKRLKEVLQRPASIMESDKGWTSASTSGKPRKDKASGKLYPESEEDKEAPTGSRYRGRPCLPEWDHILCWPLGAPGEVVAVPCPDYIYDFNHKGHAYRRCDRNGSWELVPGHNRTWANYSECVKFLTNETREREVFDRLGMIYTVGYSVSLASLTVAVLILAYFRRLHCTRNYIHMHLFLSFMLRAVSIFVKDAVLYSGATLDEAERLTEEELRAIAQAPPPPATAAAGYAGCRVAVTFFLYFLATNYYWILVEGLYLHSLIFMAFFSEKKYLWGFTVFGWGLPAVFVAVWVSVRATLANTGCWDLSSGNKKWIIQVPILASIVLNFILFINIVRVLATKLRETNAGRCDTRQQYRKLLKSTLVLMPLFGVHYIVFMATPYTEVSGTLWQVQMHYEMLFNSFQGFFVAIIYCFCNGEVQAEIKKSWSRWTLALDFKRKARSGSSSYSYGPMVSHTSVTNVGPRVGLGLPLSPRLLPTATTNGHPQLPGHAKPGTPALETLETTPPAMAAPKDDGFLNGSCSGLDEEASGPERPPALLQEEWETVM


Legend:
[1] = biological target: T1, truncated human P1R deleted for …; test: Scatchard transformation of homologous competition binding, 125I-[Aib1,3,M]PTH(1-21) tracer, COS-7 cells expressing P1R-delNt
Description: (§1) The cells were subsequently lysed with 0.5 mL […] NaOH and counted for radioactivity. For each tracer and in each experiment, the non-specific binding was determined as the radioactivity that bound in the presence of the same unlabeled peptide at a concentration of 1 μM, and was ˜1% of total radioactivity added for each tracer. The maximum specific binding (B₀) was the total radioactivity bound in the absence of competing ligand, corrected for nonspecific binding, and for each tracer, ranged from 8% to 20% of the total radioactivity added. Nonlinear regression was used to calculate binding IC₅₀ values (see below). Scatchard transformations of homologous competition binding data derived from studies with 26 fmol of ¹²⁵I-[Aib^{1,3},M]PTH(1-21) were employed for estimations of apparent equilibrium dissociation constant (kDapps) and total number of ligand binding sites (Bₘₐₓ), assuming a single class of binding sites and equal affinities of the iodinated and non iodinated ligand.
(§2) To potentially improve affinity of this peptide, the paired Aib-1,3 modifications were introduced to produce [Aib^{1,3},M]PTH(1-21). […] The total specific binding observed in COS-7 cells tranfected with vector DNA alone was<2% of total radioactivity added. This radioligand, therefore, enabled competition binding experiments to be performed with both the wild-type and truncated PTH-1 receptors.

[2] = biological target: T2, wild-type human PTH/PTHrP receptor …; test: Scatchard transformation of homologous competition binding, 125I-[Aib1,3,M]PTH(1-21) tracer, COS-7 cells expressing P1R-WT
Description: as §1, §2

[3] = biological target: T1, truncated human P1R deleted for …; test: Scatchard transformation of homologous competition binding, COS-7 cells
Description: as §1, §2

[4] = biological target: T2, wild-type human PTH/PTHrP receptor …; test: competition binding, COS-7 cells expressing P1R-WT
[5] = biological target: T2, wild-type human PTH/PTHrP receptor …; test: competition binding on HKRK-B28 cells
Description: Competition Binding. Binding reactions were performed with HKRK-B28 cells or in COS-7 cells in 24-well plates. The cells were rinsed with 0.5 mL of binding buffer, and then treated successively with 100 μL binding buffer, 100 μL of binding buffer containing various amounts of unlabeled competitor ligand, and 100 μL of binding buffer containing ca. 100,000 cpm of ¹²⁵I-[M]PTH(1-21) or ¹²⁵I-[Aib^{1,3},M]PTH(1-21)} (ca. 26 fmol; final volume=300 μL). Incubations were 4 to 6 h at 4° C., at which time near equilibrium conditions were attained. Cells were then placed on ice, the binding medium was removed, and the monolayer was rinsed three times with 0.5 mL of cold binding buffer. The cells were subsequently lysed with 0.5 mL […] and counted for radioactivity. For each tracer and in each experiment, the non-specific binding was determined as the radioactivity that bound in the presence of the same unlabeled peptide at a concentration of 1 μM, and was ˜1% of total radioactivity added for each tracer. The maximum specific binding (B₀) was the total radioactivity bound in the absence of competing ligand, corrected for nonspecific binding, and for each tracer, ranged from 8% to 20% of the total radioactivity added. Nonlinear regression was used to calculate binding IC₅₀ values (see below). […]

Binder | Kd [1] [nM] | Kd [2] [nM] | fold weaker affinity at P1R-delNt than at P1R-WT [3] [fold] | fold stronger binding affinity than [M]PTH(1-14) [4] [fold] | fold higher apparent affinity than [M]PTH(1-14) [5] [fold]
[Aib]V[Aib]EIQL[Nle]HQ[hArg]AKWLASVRRY-NH2 (N-terminus assumed; SMILES CCCC[C@H](NC(=O)[C@H](CC(C)C)NC(=O)[C@H](CCC(N)=O)NC(=O)[C@@H](NC(=O)[C@H](CCC(=O)O)NC(=O)C(C)(C)NC(=O)[C@@H](NC(=O)C(C)(C)N)C(C)C)[C@@H](C)CC)C(=O)N[C@@H](Cc1c[nH]cn1)C(=O)N[C@@H](CCC(N)=O)C(=O)N[C@@H](CCCCNC(=N)N)C(=O)N[C@@H](C)C(=O)N[C@@H](CCCCN)C(=O)N[C@@H](Cc1c[nH]c2ccccc12)C(=O)N[C@@H](CC(C)C)C(=O)N[C@@H](C)C(=O)N[C@@H](CO)C(=O)N[C@H](C(=O)N[C@@H](CCCNC(=N)N)C(=O)N[C@@H](CCCNC(=N)N)C(=O)N[C@@H](Cc1ccc(O)cc1)C(N)=O)C(C)C, unlabeled peptide; also called 674 [Aib^1,3, M]PTH (1-21); 674 [Aib^1,3M]PTH(1-21)) [[Aib^1,3,M]PTH(1-21)] | 29 | 17 | < 2 | – | –
[Aib]V[Aib]EIQLMHQ[hArg]AKW-NH2 (N-terminus assumed; SMILES CC[C@H](C)[C@H](NC(=O)[C@H](CCC(=O)O)NC(=O)C(C)(C)NC(=O)[C@@H](NC(=O)C(C)(C)N)C(C)C)C(=O)N[C@@H](CCC(N)=O)C(=O)N[C@@H](CC(C)C)C(=O)N[C@@H](CCSC)C(=O)N[C@@H](Cc1c[nH]cn1)C(=O)N[C@@H](CCC(N)=O)C(=O)N[C@@H](CCCCNC(=N)N)C(=O)N[C@@H](C)C(=O)N[C@@H](CCCCN)C(=O)N[C@@H](Cc1c[nH]c2ccccc12)C(N)=O, also called 671 [Aib^1,3, M]PTH (1-14); 671 [Aib^1,3M]PTH(1-14)) [[Aib^1,3,M]PTH(1-14)] | – | – | – | ~10 | 100
